In assay [1] the target is recombinant human CA IX (human, UniProt Q16790 38-414). Kind of assay: SPR (Biacore T200), antibody captured on CM5 chip, rh CA IX in flow, 25 C. How it is done:
In order to determinate the antigen-binding affinity of humanized variants, measurements of affinity constant (KD) for antibodies binding to CA IX were performed by SPR using a Biacore 2000 (T200 in case of CA9hu-2) instrument (GE Healthcare, Piscataway, NJ USA). Each humanized antibody variant was captured on the CM5 sensor chip and recombinant human CA IX (rh CA IX; 42 kDa; R&D Systems, Inc., Minneapolis MN, USA) protein as an antigen was added to the buffer flowing over the chip. The setting details of quantitative interaction analysis between humanized antibodies and rh CA IX were as follows: flow rate 30 μl/min; analysis temperature 25° C.; analysis buffer (10mM HEPES pH 7.4, 150 mM NaCl, […], 0.05% Tween 20). Results from SPR analysis are expressed as the equilibrium dissociation constant (KD) (Table 7).

In assay [2] the target is CA IX expressed by cells (C-33a_CA IX transfectants; hypoxic BT-20, JIMT-1, 8-MG-BA and 42-MG-BA cells) (human, UniProt Q16790 38-459). Kind of assay: cell-based or functional assay.

This note sets out measurements from patent US20240150490A1 (MABPRO A S, published 2024).

Substitutions are numbered along the chain they refer to.

B1: CA9hu-2 chimeric HC0LC0 (antibody, V domains shown)
VH: EVQLVETGGGLVQPKGSLKLSCAASGFTFNTNAMHWVRQAPGKGLEWVARIRSKSNNYTTYYADSVKDRFTISRDDSQSMLYLQMNNLKTEDTAMYYCVCGSWFAYWGQGTLVTVSA
VL: DIVMTQSPSSLAMSLGQKVTMSCKSSQSLLNSSNQKNYLAWFQQKPGQSPKLLVYFTSTRQSGVPDRFIGSGSGTDFTLTISSVQAEDLADYFCQQHYSIPLTFGAGTKLELK
notes: also called HC0LC0 (CA9hu-2)
For the molecule B1, the Kd in assay [1] came out at 13.1 nM.

B2: CA9hu-2_HC1LC5 (antibody, V domains shown)
VH: EVQLVESGGGLVQPGGSLKLSCAASGFTFNTNAMHWVRQASGKGLEWVGRIRSKSNNYTTYYADSVKDRFTISRDDSKNTAYLQMNSLKTEDTAVYYCVCGSWFAYWGQGTLVTVSS
VL: DIVMTQSPDSLAVSLGERATINCKSSQSLLNSSNQKNYLAWYQQKPGQPPKLLIYFTSTRQSGVPDRFSGSGSGTDFTLTISSLQAEDVAVYYCQQHYSIPLTFGQGTKLEIK
notes: Humanized from murine IV/18; also called HC1LC5 (CA9hu-2)
B2: the “ADCC reporter luminescence, C-33a_CA IX against C-33a_neo cells” value (“ADCC reporter luminescence, C-33a_CA IX” below) in assay [2] was 2 times. In addition, in assay [1], the Kd was 71.3 nM.

B3: CA9hu-2_HC3LC3 (antibody, V domains shown)
VH: QVQLVESGGGVVQPGGSLRLSCAASGFTFNTNAMHWVRQAPGRGLEWVARIRSKSNNYTTYYADSVKDRFTISRDNSKNTLYLQVNSLRAEDTAVYYCVCGSWFAYWGQGTLVTVSS
VL: B2 VL with V3Q, Y93F, L110V
notes: Humanized from murine IV/18; also called HC3LC3 (CA9hu-2)
Take B3: in assay [2], the “ADCC reporter luminescence, C-33a_CA IX” value came out at 2 times. The Kd in assay [1] worked out at 62.3 nM.

B4: CA9hu-2_HC3LC2 (antibody, V domains shown)
VH: B3 VH
VL: B2 VL with Y42F, K51N, L53V, S82N, Y93F, K109Q, L110V
notes: Humanized from murine IV/18; also called HC3LC2 (CA9hu-2)
As for B4, the “ADCC reporter luminescence, C-33a_CA IX” value in assay [2] was determined as 2 times. For the same molecule, the Kd in assay [1] was 40.1 nM.

B5: CA9hu-2_HC3LC1 (antibody, V domains shown)
VH: B3 VH
VL: B2 VL with I2V, A19V, P49S
notes: Humanized from murine IV/18; also called HC3LC1 (CA9hu-2)
In the case of B5, the “ADCC reporter luminescence, C-33a_CA IX” value in assay [2] worked out at 2 times. Moreover, the Kd in assay [1] was 37.4 nM.

B6: CA9hu-2_HC5LC2 (antibody, V domains shown)
VH: B2 VH with L112T
VL: B2 VL with Y42F, K51N, L53V, S82N, Y93F, K109Q, L110V
notes: Humanized from murine IV/18; also called HC5LC2 (CA9hu-2)
Turning to B6, the “ADCC reporter luminescence, C-33a_CA IX” value in assay [2] was 2 times. Besides, the Kd in assay [1] is 105 nM.

B7: CA9hu-2_HC5LC5 (antibody, V domains shown)
VH: B2 VH with L112T
VL: B2 VL
notes: Humanized from murine IV/18; also called HC5LC5 (CA9hu-2)
Take B7: the “ADCC reporter luminescence, C-33a_CA IX” value in assay [2] came out at 2 times. Also, the Kd in assay [1] is 65.1 nM.

B8: CA9hu-2_HC2LC1 (antibody, V domains shown)
VH: B2 VH with N79S
VL: B2 VL with I2V, A19V, P49S
notes: Humanized from murine IV/18; also called HC2LC1 (CA9hu-2)
Consider B8, for which the “ADCC reporter luminescence, C-33a_CA IX” value in assay [2] amounted to 2 times. Besides, the Kd in assay [1] is 53.9 nM.

B9: CA9hu-2_HC1LC4 (antibody, V domains shown)
VH: B2 VH
VL: B2 VL with Y42F, L52V, S69T
notes: Humanized from murine IV/18; also called HC1LC4 (CA9hu-2)
In the case of B9, the “ADCC reporter luminescence, C-33a_CA IX” value in assay [2] was determined as 2 times. In assay [1], the Kd is 74.9 nM.

B10: CA9hu-2_HC4LC1 (antibody, V domains shown)
VH: B3 VH with Q1E, G16R, R43K, V85M
VL: B2 VL with I2V, A19V, P49S
notes: Humanized from murine IV/18; also called HC4LC1 (CA9hu-2)
Turning to B10, the “ADCC reporter luminescence, C-33a_CA IX” value in assay [2] is 2 times. Also, in assay [1], the Kd was 39.6 nM.

B11: CA9hu-2_HC4LC4 (antibody, V domains shown)
VH: B3 VH with Q1E, G16R, R43K, V85M
VL: B2 VL with Y42F, L52V, S69T
notes: Humanized from murine IV/18; also called HC4LC4 (CA9hu-2)
In the case of B11, the “ADCC reporter luminescence, C-33a_CA IX” value in assay [2] worked out at 2 times. Moreover, the Kd in assay [1] is 74.6 nM.

B12: CA9hu-2_HC5LC3 (antibody, V domains shown)
VH: B2 VH with L112T
VL: B2 VL with V3Q, Y93F, L110V
notes: Humanized from murine IV/18; also called HC5LC3 (CA9hu-2)
In the case of B12, the “ADCC reporter luminescence, C-33a_CA IX” value in assay [2] was determined as 2 times. Also, the Kd in assay [1] amounted to 57.2 nM.

B13: CA9hu-2_HC2LC5 (antibody, V domains shown)
VH: B2 VH with N79S
VL: B2 VL
notes: Humanized from murine IV/18; also called HC2LC5 (CA9hu-2)
With B13, in assay [2], the “ADCC reporter luminescence, C-33a_CA IX” value came to 2 times. In addition, the Kd in assay [1] was found to be 60.5 nM.

B14: CA9hu-2_HC2LC2 (antibody, V domains shown)
VH: B2 VH with N79S
VL: B2 VL with Y42F, K51N, L53V, S82N, Y93F, K109Q, L110V
notes: Humanized from murine IV/18; also called HC2LC2 (CA9hu-2)
For B14, in assay [2], the “ADCC reporter luminescence, C-33a_CA IX” value worked out at 2 times. Also, the Kd in assay [1] was 87.7 nM.

B15: CA9hu-2_HC5LC1 (antibody, V domains shown)
VH: B2 VH with L112T
VL: B2 VL with I2V, A19V, P49S
notes: Humanized from murine IV/18; also called HC5LC1 (CA9hu-2)
As for B15, the “ADCC reporter luminescence, C-33a_CA IX” value in assay [2] stood at 2 times. For the same molecule, the Kd in assay [1] is 69.8 nM.

B16: CA9hu-2_HC4LC3 (antibody, V domains shown)
VH: B3 VH with Q1E, G16R, R43K, V85M
VL: B2 VL with V3Q, Y93F, L110V
notes: Humanized from murine IV/18; also called HC4LC3 (CA9hu-2)
B16: the “ADCC reporter luminescence, C-33a_CA IX” value in assay [2] was found to be 2 times. In assay [1], the Kd came out at 44.2 nM.

B17: CA9hu-2_HC2LC4 (antibody, V domains shown)
VH: B2 VH with N79S
VL: B2 VL with Y42F, L52V, S69T
notes: Humanized from murine IV/18; also called HC2LC4 (CA9hu-2)
For B17, the “ADCC reporter luminescence, C-33a_CA IX” value in assay [2] was found to be 2 times. In addition, the Kd in assay [1] came out at 60.1 nM.

B18: CA9hu-2_HC1LC3 (antibody, V domains shown)
VH: B2 VH
VL: B2 VL with V3Q, Y93F, L110V
notes: Humanized from murine IV/18; also called HC1LC3 (CA9hu-2)
As to B18, the “ADCC reporter luminescence, C-33a_CA IX” value in assay [2] worked out at 2 times. In assay [1], the Kd turned out to be 70.5 nM.

B19: CA9hu-2_HC1LC2 (antibody, V domains shown)
VH: B2 VH
VL: B2 VL with Y42F, K51N, L53V, S82N, Y93F, K109Q, L110V
notes: Humanized from murine IV/18; also called HC1LC2 (CA9hu-2)
As to B19, in assay [2], the “ADCC reporter luminescence, C-33a_CA IX” value stood at 2 times. For the same molecule, the Kd in assay [1] was determined as 56.1 nM.

B20: CA9hu-2_HC4LC5 (antibody, V domains shown)
VH: B3 VH with Q1E, G16R, R43K, V85M
VL: B2 VL
notes: Humanized from murine IV/18; also called HC4LC5 (CA9hu-2)
Consider B20, for which, in assay [2], the “ADCC reporter luminescence, C-33a_CA IX” value is 2 times. The Kd in assay [1] is 41.9 nM.

B21: CA9hu-2_HC3LC5 (antibody, V domains shown)
VH: B3 VH
VL: B2 VL
notes: Humanized from murine IV/18; also called HC3LC5 (CA9hu-2)
In the case of B21, the “ADCC reporter luminescence, C-33a_CA IX” value in assay [2] is 2 times. The Kd in assay [1] came to 54.3 nM.

B22: CA9hu-2_HC1LC1 (antibody, V domains shown)
VH: B2 VH
VL: B2 VL with I2V, A19V, P49S
notes: Humanized from murine IV/18; also called HC1LC1 (CA9hu-2)
Turning to B22, the “ADCC reporter luminescence, C-33a_CA IX” value in assay [2] is 2 times. In addition, the Kd in assay [1] came to 44 nM.

B23: CA9hu-2_HC5LC4 (antibody, V domains shown)
VH: B2 VH with L112T
VL: B2 VL with Y42F, L52V, S69T
notes: Humanized from murine IV/18; also called HC5LC4 (CA9hu-2)
On to B23, for which the “ADCC reporter luminescence, C-33a_CA IX” value in assay [2] amounted to 2 times. Moreover, the Kd in assay [1] was 47.3 nM.

B24: CA9hu-2_HC2LC3 (antibody, V domains shown)
VH: B2 VH with N79S
VL: B2 VL with V3Q, Y93F, L110V
notes: Humanized from murine IV/18; also called HC2LC3 (CA9hu-2)
Take B24: the “ADCC reporter luminescence, C-33a_CA IX” value in assay [2] turned out to be 2 times. Also, the Kd in assay [1] was determined as 98.3 nM.

By Kd is commonly meant the constant that tells how readily two partners part at equilibrium.
